Laboratory results published in patent US20220332804A1 (CSL INNOVATION, published 2022).

What was measured:
Assay in all cases: SPR, KD relative to WT C2;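 note: biacore SPR at 37 °C, anti-C2 mAbs captured via immobilised goat anti-human IgG, C2 alanine or serine surface mutants as analytes, 1:1 model fitted, double-referenced sensograms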
human C2 A470S = biological target: T1, human C2 A470S (human, UniProt P06681 21-752)
T1 sequence: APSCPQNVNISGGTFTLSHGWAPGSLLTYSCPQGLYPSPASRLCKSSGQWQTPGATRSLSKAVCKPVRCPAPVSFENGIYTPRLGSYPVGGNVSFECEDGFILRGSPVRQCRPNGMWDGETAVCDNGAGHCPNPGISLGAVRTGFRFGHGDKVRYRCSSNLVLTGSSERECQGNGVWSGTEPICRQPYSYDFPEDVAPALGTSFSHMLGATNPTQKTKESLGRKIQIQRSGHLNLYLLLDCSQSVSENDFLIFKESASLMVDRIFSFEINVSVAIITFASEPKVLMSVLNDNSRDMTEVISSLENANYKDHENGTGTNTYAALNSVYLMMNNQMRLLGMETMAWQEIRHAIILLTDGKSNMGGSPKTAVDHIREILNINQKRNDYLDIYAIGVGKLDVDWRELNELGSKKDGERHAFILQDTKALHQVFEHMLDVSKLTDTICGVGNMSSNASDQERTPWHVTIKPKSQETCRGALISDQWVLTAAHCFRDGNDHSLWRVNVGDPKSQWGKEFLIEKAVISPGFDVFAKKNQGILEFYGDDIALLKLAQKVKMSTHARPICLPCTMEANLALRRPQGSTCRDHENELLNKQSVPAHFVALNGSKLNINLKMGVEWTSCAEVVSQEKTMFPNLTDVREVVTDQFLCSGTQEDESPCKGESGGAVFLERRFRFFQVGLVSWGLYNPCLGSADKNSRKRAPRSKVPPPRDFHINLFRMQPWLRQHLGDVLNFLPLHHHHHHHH

human C2 I320A = biological target: T2, human C2 I320A (human, UniProt P06681 21-752)
T2 sequence: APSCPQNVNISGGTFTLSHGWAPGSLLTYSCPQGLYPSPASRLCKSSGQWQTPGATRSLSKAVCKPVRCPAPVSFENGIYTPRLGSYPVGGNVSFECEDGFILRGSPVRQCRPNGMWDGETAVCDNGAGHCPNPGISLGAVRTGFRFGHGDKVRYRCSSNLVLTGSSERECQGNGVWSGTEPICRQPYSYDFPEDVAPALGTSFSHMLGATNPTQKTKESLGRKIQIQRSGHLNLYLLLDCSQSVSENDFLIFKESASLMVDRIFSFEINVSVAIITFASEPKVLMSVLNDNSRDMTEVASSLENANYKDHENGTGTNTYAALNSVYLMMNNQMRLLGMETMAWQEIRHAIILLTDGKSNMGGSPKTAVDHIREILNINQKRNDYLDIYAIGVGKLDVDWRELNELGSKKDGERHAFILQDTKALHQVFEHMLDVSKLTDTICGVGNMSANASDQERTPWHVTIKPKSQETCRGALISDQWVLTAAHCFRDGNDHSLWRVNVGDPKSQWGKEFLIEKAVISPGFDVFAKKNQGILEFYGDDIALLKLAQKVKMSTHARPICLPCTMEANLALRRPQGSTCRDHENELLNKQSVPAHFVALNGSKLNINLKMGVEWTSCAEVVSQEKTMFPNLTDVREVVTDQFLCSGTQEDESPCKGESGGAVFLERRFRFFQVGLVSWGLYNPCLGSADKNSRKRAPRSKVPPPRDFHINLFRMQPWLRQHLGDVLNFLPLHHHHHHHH

human C2 Q489A = biological target: T3, human C2 Q489A (human, UniProt P06681 21-752)
T3 sequence: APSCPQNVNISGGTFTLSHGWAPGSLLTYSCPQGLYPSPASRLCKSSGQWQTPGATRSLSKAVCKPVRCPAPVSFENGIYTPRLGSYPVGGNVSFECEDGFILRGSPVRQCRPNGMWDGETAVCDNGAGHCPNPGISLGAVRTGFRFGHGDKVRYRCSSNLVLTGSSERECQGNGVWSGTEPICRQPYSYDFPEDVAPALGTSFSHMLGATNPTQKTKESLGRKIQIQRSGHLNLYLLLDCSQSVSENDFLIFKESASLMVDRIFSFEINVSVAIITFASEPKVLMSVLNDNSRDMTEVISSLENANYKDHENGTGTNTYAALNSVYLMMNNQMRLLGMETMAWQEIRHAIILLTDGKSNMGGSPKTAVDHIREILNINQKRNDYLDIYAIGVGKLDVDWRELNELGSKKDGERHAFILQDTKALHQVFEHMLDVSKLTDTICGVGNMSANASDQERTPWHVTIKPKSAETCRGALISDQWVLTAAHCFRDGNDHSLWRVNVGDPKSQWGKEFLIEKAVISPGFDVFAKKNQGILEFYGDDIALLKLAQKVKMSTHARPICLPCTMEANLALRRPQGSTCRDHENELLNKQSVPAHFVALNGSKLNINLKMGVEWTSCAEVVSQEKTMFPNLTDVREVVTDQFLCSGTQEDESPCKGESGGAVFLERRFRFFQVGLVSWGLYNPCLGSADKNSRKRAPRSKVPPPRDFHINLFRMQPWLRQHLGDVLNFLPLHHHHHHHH

human C2 N703A = biological target: T4, human C2 N703A (human, UniProt P06681 21-752)
T4 sequence: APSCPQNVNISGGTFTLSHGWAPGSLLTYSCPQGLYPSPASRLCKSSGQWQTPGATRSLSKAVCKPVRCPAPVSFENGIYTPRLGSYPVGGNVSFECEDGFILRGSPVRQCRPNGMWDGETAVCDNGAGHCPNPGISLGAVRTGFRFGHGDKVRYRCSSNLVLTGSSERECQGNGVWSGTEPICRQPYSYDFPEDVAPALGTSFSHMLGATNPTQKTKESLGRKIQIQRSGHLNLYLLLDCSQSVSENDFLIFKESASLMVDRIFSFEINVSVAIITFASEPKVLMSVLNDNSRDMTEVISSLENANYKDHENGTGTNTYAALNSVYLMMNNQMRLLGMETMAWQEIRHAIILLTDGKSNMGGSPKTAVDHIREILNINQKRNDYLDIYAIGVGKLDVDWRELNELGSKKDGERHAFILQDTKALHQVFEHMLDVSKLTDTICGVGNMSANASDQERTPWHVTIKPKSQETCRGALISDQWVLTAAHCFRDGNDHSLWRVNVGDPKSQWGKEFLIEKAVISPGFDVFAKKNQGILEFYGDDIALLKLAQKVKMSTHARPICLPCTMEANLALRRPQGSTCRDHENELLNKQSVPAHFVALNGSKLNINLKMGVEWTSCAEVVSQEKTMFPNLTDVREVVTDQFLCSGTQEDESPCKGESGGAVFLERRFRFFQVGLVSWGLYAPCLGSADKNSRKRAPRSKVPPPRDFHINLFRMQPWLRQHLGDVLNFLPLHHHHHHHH

B1: RF16-226 (antibody, human IgG4 S228P, lambda)
heavy: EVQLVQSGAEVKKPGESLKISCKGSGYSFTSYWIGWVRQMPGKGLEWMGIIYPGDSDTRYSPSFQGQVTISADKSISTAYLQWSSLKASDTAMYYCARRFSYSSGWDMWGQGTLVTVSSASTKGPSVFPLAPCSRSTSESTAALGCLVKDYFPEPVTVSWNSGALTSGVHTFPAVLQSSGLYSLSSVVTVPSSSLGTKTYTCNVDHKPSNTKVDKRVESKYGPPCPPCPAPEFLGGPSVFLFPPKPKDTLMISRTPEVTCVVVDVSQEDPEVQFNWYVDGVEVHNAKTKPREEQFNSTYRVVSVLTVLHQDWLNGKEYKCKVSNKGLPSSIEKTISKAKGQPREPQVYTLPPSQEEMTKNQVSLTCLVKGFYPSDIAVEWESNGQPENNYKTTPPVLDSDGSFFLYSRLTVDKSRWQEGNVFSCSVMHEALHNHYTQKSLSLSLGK
light: SYELTQPPSVSVSPGQTARITCSGDALTSKYVAWYQQKSGLAPLLVIYEDTRRPSGIPAKFSGSSSGSVATLTISGAHGDDEADYYCYSTDASGHQRVFGGGTKLTVLSQPKAAPSVTLFPPSSEELQANKATLVCLISDFYPGAVTVAWKADGSPVKAGVETTKPSKQSNNKYAASSYLSLTPEQWKSHRSYSCQVTHEGSTVEKTVAPTECS
notes: pH-dependent anti-C2 antibody from a phage display library; also called WT
B1 gave a Fold diff (human C2 A470S) of 1 fold, a Fold diff (human C2 I320A) of 12 fold and a Fold diff (human C2 Q489A) of 10 fold. For the same binder, the Fold diff (human C2 N703A) was 29 fold.
